According to patent US20230383012A1 (Xencor, published 2023):
Numbering of substitutions follows the chain as printed. Blank lines part the entries; values can stand above or below the binder they belong to.

Molecular target: T1, human PDL1 (human, UniProt Q9NZQ7 19-238)
T1 construct: his-tagged in the Carterra assay; also called PDL1 antigen
Assay: descriptor in the SEB-stimulated PBMC example

- binding result: binds
B1: XENP39368 (bispecific antibody)
heavy: EVQLLESGGGLVQPGGSLRLSCAASGFTFSSYDMSWVRQAPGKRLEWVSTISSGGSFTHYPDSVKGRFTISRDNSKNTLYLQMNSLRAEDTAVYYCARRSLDWYFDVWGAGTTVTVSSASTKGPSVFPLAPSSKSTSGGTAALGCLVKDYFPEPVTVSWNSGALTSGVHTFPAVLQSSGLYSLSSVVTVPSSSLGTQTYICNVNHKPSDTKVDKKVEPKSCDKTHTCPPCPAPPVAGPSVFLFPPKPKDTLMISRTPEVTCVVVDVKHEDPEVKFNWYVDGVEVHNAKTKPREEEYNSTYRVVSVLTVLHQDWLNGKEYKCKVSNKALPAPIEKTISKAKGQPREPQVYTLPPSREEMTKNQVSLTCDVSGFYPSDIAVEWESDGQPENNYKTTPPVLDSDGSFFLYSKLTVDKSRWEQGDVFSCSVMHEALHNHYTQKSLSLSPGK
scFv-Fc: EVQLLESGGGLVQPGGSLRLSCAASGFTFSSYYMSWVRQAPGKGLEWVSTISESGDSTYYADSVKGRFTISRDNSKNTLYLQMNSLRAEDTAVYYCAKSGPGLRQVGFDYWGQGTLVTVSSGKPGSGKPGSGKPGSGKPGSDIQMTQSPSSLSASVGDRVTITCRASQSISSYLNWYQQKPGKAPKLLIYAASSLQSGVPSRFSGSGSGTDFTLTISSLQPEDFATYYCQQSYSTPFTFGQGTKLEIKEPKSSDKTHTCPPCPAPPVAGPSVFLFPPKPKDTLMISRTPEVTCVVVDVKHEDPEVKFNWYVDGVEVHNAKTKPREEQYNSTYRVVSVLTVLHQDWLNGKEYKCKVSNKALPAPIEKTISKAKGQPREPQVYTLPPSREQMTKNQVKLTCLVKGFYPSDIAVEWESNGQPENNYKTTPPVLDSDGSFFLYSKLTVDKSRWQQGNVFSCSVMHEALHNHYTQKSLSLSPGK
light: EIVLTQSPGTLSLSPGERATLSCRVSSSIQSTNLHWYQQKPGQSPRPLIYGTSVLATGVPVRFSGSGSGTDYTLTISRLEPEDFAVYYCQQWSSYPLYTFGGGTKVEIKRTVAAPSVFIFPPSDEQLKSGTASVVCLLNNFYPREAKVQWKVDNALQSGNSQESVTEQDSKDSTYSLSSTLTLSKADYEKHKVYACEVTHQGLSSPVTKSFNRGEC

- binding result: binds
B2: XENP39365 (bispecific antibody)
heavy: B1 heavy
scFv-Fc: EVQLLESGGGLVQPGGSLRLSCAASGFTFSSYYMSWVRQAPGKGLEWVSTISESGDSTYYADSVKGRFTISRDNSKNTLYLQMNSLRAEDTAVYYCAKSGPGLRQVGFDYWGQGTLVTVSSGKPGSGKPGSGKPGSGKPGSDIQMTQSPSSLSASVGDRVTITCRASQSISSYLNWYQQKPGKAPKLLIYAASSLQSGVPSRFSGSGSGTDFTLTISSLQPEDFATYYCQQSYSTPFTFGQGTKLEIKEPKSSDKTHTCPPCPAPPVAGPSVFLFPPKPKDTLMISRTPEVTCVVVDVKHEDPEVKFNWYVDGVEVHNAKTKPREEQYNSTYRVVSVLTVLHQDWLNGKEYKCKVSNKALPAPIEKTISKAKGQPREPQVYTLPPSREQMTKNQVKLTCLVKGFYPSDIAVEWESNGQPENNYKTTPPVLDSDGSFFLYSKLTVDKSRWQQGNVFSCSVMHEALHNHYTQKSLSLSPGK
light: B1 light with S27L, T32S, S53N, V54L, T57S
